We go through two molecules from patent US20090298167A1 (Pfizer, published 2009).

Residue numbers refer to the chain shown, from its start. Numbers in names are those of the source.

Assay [1] deals with T1, rat IL-21R expressed on cells (rat).
T1 construct: whole, on cells; Transiently transfected CHO-PA-Dukx cells
Put plainly: cell ELISA: CHO cells transiently expressing the receptor, antibody in conditioned medium, HRP anti-human IgG, A450. On the procedure: (§1) A subset of binding proteins was tested for binding to rat, cynomolgus monkey, human IL-21R, or human IL-2R-γ common subunit expressed transiently on the surfaces of CHO-PA-Dukx cells. Cells were transfected 48 hr prior to the assay. On the day of the assay, cells were washed gently 5× in PBS containing 0.9 mM CaCl₂ and 0.45 mM MgCl₂ (PBS/CaMg) on an automated plate washer (Titertek, Huntsville, Ala.), and blocked for 1 hr at RT in PBS/CaMg/5% nonfat dry milk. Conditioned media from transiently expressed anti-IL-21R IgGs were serially diluted in blocking buffer and added to the cells in the blocked plates for 1 hr at RT. Cells were washed 5× with PBS/CaMg and then incubated with horseradish peroxidase-conjugated anti-human IgG for 1 hr at RT. Cells were then washed 10× in PBS/CaMg and all of the wash buffer was removed. Cells were incubated with 100 μl TMB until the color reaction reached saturation, stopped with 100 μl of 0.18 M H₂SO₄, and read at A450 on a Perkin Elmer ENVISION™ plate reader.
For orientation: ELISA stands for enzyme-linked immunosorbent assay.

The target in assay [2] is T2, cynomolgus monkey IL-21R expressed on CHO cells (cynomolgus monkey).
T2 construct: whole, on cells
Put plainly: cell ELISA on transfected CHO cells, 13 nM IgG.

The target of assay [3] is T3, human gamma common chain expressed on CHO cells (human, UniProt P31785 23-369).
T3 construct: whole, on cells; Control protein; also called human IL-2R-γ common subunit; human gamma (γ) common chain
T3 sequence (looked up): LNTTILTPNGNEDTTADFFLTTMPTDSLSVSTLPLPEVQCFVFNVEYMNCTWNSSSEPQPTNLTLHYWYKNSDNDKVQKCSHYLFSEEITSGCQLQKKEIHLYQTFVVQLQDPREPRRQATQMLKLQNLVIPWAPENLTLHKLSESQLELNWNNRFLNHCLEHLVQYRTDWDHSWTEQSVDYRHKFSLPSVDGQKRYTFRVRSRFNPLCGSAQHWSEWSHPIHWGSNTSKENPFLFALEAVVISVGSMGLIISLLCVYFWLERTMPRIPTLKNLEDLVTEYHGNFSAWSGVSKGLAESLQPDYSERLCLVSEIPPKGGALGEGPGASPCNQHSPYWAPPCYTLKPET
Put plainly: cell ELISA on transfected CHO cells, 13 nM IgG.

Assay [4] addresses T4, human IL-21R expressed on cells (human, UniProt Q9HBE5 20-538).
T4 construct: Transfected BaF3, TF1 and CHO cells; also native on primary human B and CD4+ T cells; also called hIL-21R; human IL-21R-BaF3 cells
Put plainly: cell ELISA on transfected CHO cells, 13 nM IgG.

In assay [5] the target is T1, rat IL-21R expressed on cells. Briefly: cell ELISA on transfected CHO cells, 13 nM IgG.
The target of assay [6] is T4, human IL-21R expressed on cells. Briefly: cell-based or functional assay.
Assay [7] deals with T5, murine IL-21R expressed on cells (murine, UniProt Q9JHX3 20-529). Put plainly: cell-based or functional assay.
The target in assay [8] is T1, rat IL-21R expressed on cells. Put plainly: cell-based or functional assay.
Assay [9] deals with T4, human IL-21R expressed on cells. Briefly: cell-based or functional assay. The source holds these as a separate data set.
The target in assay [10] is T5, murine IL-21R expressed on cells. Put plainly: cell-based or functional assay. The source holds these as a separate data set.
Assay [11] addresses T4, human IL-21R expressed on cells. Put plainly: cell-based or functional assay. The source holds these as a separate data set.
Another assay has as its target T6, human soluble IL-4R (human, UniProt P24394 26-231, limits assumed).
T6 construct: soluble; also called human sIL-4R
Briefly: BIACORE: antibody captured on anti-human IgG, 50 nM analyte injected. On the procedure: (§2) The specificity of binding of a subset of transiently expressed anti-IL-21R binding proteins (here antibodies) was tested on a BIACORE™ 2000 surface plasmon resonance instrument. Anti-human-IgG, anti-murine immunoglobulin antibodies, and murine IL-21R-H/F were immobilized onto a research-grade carboxymethyl-dextran chip (CM5) using standard amine coupling. The sensor chip surface was activated with EDC/NHS for 7 min at a flow rate of 20 μl/min. The first flow cell was used as reference surface to correct for bulk refractive index, matrix effects, and nonspecific binding. […] Remaining activated groups were blocked with 1.0 M ethanolamine (pH 8.0). The molecular weights of the anti-human IgG and the anti-murine IgG were both 150 kD, and the molecular weight of the IL-21R monomer was 27 kD.
(§3) Conditioned media containing anti-IL-21R antibodies and antibody controls (murine anti-human IL-2Rβ and murine anti-human IL-4R(R&D Systems, Minneapolis, Minn.); human anti-human IL-13 (Wyeth, Cambridge, Mass.)) were diluted in HBS/EP buffer supplemented with 0.2% bovine serum and injected onto all four flow cells of the BIACORE™ chip, capturing 500-700 (RU) of antibody on the species-appropriate capture antibody. Following a 5 sec washing period, 50 nM solutions of a positive control protein (murine IL-21R-H/F), two human proteins related to IL-21R (human IL-2Rβ and human sIL-4R(R&D Systems)), or an unrelated His/FLAG-tagged protein (human IL-13-H/F), were injected over the captured antibodies on the chip. The association and dissociation phases were monitored for 120 and 180 sec, respectively, followed by two 5 μl injections of glycine (pH 1.5) to regenerate a fully active capturing surface. All binding experiments were done at 25° C. in HBS/EP buffer. Blank and buffer effects were subtracted for each sensorgram using double referencing.
(In general: SPR reads the build-up and loss of mass on a sensor chip optically.)

Another assay has as its target T7, human IL-2Rβ (human, UniProt P14784 27-239).
T7 construct: Bought
T7 sequence (looked up): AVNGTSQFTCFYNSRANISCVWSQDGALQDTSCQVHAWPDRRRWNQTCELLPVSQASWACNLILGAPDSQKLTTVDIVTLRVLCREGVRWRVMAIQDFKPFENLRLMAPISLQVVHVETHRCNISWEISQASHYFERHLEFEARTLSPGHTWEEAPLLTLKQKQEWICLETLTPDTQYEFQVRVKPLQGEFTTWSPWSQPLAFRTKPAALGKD
The description is as above. On the procedure: as §2, §3

The target in the next assay is T8, human IL-13-His/FLAG (human, UniProt P35225 35-146, limits assumed).
T8 construct: Unrelated His/FLAG-tagged control; also called human IL-13-H/F
The assay is described as above. On the procedure:
as §2, §3

Assay [12] has as its target T2, cynomolgus monkey IL-21R expressed on …. Briefly: cell ELISA: CHO cells transiently expressing the receptor, antibody in conditioned medium, HRP anti-human IgG, A450. On the procedure: FIG. 6 depicts the binding of 21 anti-IL-21R IgGs to CHO cells transiently expressing human IL-21R (FIGS. 6a-c), rat IL-21R (FIGS. 6d-f), cynomolgus monkey IL-21R (FIGS. 6g-i), and human gamma common chain (FIGS. 6j-l). CHO cells were transiently transfected with IL-21R or the control gamma common chain, and binding was detected with HRP-conjugated anti-human IgG in a cell-based ELISA.
as §1

T5 sequence (Q9JHX3 20-529 limits assumed): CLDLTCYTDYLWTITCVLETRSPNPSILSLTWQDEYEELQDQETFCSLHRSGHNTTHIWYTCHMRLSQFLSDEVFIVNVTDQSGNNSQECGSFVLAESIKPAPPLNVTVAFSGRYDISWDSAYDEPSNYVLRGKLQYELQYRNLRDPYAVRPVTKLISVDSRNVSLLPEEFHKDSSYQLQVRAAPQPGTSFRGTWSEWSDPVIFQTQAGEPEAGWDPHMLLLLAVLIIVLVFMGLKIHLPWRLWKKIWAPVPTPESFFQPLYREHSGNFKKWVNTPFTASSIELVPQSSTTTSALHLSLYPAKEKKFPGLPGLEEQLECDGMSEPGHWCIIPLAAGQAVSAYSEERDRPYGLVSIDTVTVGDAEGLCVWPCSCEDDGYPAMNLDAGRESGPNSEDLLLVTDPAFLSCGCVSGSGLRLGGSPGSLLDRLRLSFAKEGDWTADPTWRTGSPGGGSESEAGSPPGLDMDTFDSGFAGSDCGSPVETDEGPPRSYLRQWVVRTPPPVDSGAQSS
T4 sequence (Q9HBE5 20-538 limits assumed): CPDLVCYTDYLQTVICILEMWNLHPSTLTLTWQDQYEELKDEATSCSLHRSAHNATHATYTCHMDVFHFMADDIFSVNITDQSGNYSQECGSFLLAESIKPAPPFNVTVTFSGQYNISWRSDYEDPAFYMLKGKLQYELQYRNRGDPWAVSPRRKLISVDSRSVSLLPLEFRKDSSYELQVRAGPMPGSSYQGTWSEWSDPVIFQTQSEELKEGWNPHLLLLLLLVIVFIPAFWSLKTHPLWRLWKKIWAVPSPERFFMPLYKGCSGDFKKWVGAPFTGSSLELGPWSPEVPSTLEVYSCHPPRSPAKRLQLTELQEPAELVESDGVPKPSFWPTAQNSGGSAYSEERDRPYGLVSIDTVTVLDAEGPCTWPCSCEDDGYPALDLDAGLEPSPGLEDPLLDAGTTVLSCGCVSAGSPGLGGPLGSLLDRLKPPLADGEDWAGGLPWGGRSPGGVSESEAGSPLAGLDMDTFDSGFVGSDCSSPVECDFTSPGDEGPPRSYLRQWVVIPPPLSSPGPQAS
T6 sequence (P24394 26-231 limits assumed): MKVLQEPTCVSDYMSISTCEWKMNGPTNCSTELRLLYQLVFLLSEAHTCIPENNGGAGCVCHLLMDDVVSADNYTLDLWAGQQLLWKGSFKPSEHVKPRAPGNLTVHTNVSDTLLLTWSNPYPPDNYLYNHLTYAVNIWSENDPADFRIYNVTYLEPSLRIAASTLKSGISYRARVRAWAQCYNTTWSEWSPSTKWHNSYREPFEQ
T8 sequence (P35225 35-146 limits assumed): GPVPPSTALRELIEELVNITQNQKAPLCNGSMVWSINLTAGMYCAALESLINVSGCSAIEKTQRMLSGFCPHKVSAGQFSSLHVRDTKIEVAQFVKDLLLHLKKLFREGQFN

B1: AbG (antibody, human IgG1, V domains shown)
VH: QVQLQESGPGLVKPSETLSLTCAVSGYSISSGYYWGWIRQPPGKGLEWIGSISHTGNTYYNPPLKSRVTISVDTSKNQFSLKLSSVTAADTAVYYCARGGGISRPEYWGQGTLVTVSS
VL: SSELTQDPAVSVALGQTVRITCQGDSLRTYYASWYQQKPGQAPVLVIYGKHKRPSGIPDRFSGSSSGNTASLTITGAQAEDEADYYCVTRSVKGNPHVLFGGGTQLTVL
notes: Full-length human IgG1 / human lambda, transient, conditioned medium; Framework limits derived; also called VHP/VL18
One may read the EC50 (read off the curve) as the concentration that produces a half-maximal response. With B1, the “EC50 (read off the curve)” value in assay [1] is roughly 0.8 nM. Moreover, the “A450 at 13 nM Ab in cell ELISA” value in [2] turned out to be 1.3 A450; in [3], 0.108 A450; in assay [4] it was 1.35 A450; in [5], 1.11 A450. For the same molecule, the “Human IL-21R-BaF3 Proliferation IC50” value in assay [6] is 0.77 nM. For the same molecule, the “Human IL-21R-TF1 Proliferation IC50” value in assay [6] was 3.84 nM. Also, the “Murine IL-21R-BaF3 Proliferation IC50” value in assay [7] stood at 0.07 nM.

B2: AbU (antibody, human IgG1, V domains shown)
VH: B1 VH
VL: B1 VL with V88T, V92N
notes: Human IgG1 triple-mutant (L234A, L235A, G237A); Framework limits derived; also called VHP/VL25; VHPTM/VL25
Consider B2, for which, in assay [8], the “IC50 (nM) experiment 1, rat T cell proliferation” value stood at 173 nM. Also, the “IC50 (nM) experiment 2, rat T cell proliferation” value in assay [8] is 105 nM. For the same molecule, the “Neutralization of T cell Proliferation IC50 (nM), human primary CD4+ T cells” value in [9] was 0.03 nM. Moreover, the “Neutralization of T cell Proliferation IC50 (nM), murine primary CD8+ T cells” value in assay [10] turned out to be 1.79 nM. Moreover, the “Neutralization of B cell proliferation IC50” value in [11] turned out to be 0.13 nM. Also, the “A450 at 13 nM Ab in cell ELISA” value in assay [2] was 1.31 A450; in assay [3], 0.104 A450; in assay [4], 1.29 A450; in assay [5], 0.927 A450. Further, the “Human IL-21R-BaF3 Proliferation IC50” value in assay [6] was found to be 0.73 nM. Also, in assay [6], the “Human IL-21R-TF1 Proliferation IC50” value was 3.13 nM. Further, the “Murine IL-21R-BaF3 Proliferation IC50” value in assay [7] amounted to 0.184 nM. Also, the binding result with human soluble IL-4R, with human IL-2Rβ and in the assay with human IL-13-His/FLAG was “no binding (tested: 50 nM)” throughout. Also, in [12], the concentration for a half-maximal effect (EC50 (read off the curve)) was roughly 0.8 nM.
